Test results from patent US20160108091A1 (Novartis, published 2016).
Bridges are numbered along the chain shown (N, C = ends). [ ]: non-standard residue; d: D form. 2Nal = N[C@@H](Cc1ccc2ccccc2c1)C(=O)O; hCys = N[C@@H](CCS)C(=O)O; Nle = CCCC[C@H](N)C(=O)O

T1: human APJ receptor (hAPJ) (human, UniProt P35414 1-380)
T1 sequence (looked up): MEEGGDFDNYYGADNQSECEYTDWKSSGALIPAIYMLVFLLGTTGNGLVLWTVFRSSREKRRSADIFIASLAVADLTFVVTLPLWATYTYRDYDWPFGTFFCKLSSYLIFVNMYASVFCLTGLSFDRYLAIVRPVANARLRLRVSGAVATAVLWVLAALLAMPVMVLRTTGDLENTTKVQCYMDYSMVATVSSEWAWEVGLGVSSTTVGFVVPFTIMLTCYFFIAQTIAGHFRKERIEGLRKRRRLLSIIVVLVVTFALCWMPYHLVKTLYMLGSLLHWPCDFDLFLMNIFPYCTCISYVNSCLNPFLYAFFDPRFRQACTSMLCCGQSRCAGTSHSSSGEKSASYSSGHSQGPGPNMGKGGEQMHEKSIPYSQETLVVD

B1: Ac-hC*-R-P-R-L-S-hC*-K-G-P-Nle-P-F-OH (peptide)
peptide: Ac-[hCys]RPRLS[hCys]KGP[Nle]PF-OH
modifications: disulfide 1-7
SMILES: CCCC[C@H](NC(=O)[C@@H]1CCCN1C(=O)CNC(=O)[C@H](CCCCN)NC(=O)[C@@H]1CCSSCC[C@H](NC(C)=O)C(=O)N[C@@H](CCCNC(=N)N)C(=O)N2CCC[C@H]2C(=O)N[C@@H](CCCNC(=N)N)C(=O)N[C@@H](CC(C)C)C(=O)N[C@@H](CO)C(=O)N1)C(=O)N1CCC[C@H]1C(=O)N[C@@H](Cc1ccccc1)C(=O)O
B2: Ac-C*-R-P-R-L-S-hC*-K-G-P-Nle-P-F-OH (peptide)
peptide: Ac-CRPRLS[hCys]KGP[Nle]PF-OH
modifications: disulfide 1-7
SMILES: CCCC[C@H](NC(=O)[C@@H]1CCCN1C(=O)CNC(=O)[C@H](CCCCN)NC(=O)[C@@H]1CCSSC[C@H](NC(C)=O)C(=O)N[C@@H](CCCNC(=N)N)C(=O)N2CCC[C@H]2C(=O)N[C@@H](CCCNC(=N)N)C(=O)N[C@@H](CC(C)C)C(=O)N[C@@H](CO)C(=O)N1)C(=O)N1CCC[C@H]1C(=O)N[C@@H](Cc1ccccc1)C(=O)O
B3: Apelin cyclic peptide conjugated to a fatty acid via a BCN-PEG linker: … (peptide)
peptide: ERPCLSCKGPL
modifications: pE at 1; disulfide C4-C7; Lys 8 N6 carries the BCN carbamate, joined by click reaction to azido-dPEG23-amide of docos-21-ene-1,11,11-tricarboxylic acid (fatty acid-PEG linker, compound A); D-Nle at 11 with C-terminal NH(Phenethyl) amide
B4: Ac-C*-R-P-R-L-S-C*-K-G-P-Nle-P-a-OH (peptide)
peptide: Ac-CRPRLSCKGP[Nle]P[dA]-OH
modifications: disulfide 1-7
SMILES: CCCC[C@H](NC(=O)[C@@H]1CCCN1C(=O)CNC(=O)[C@H](CCCCN)NC(=O)[C@@H]1CSSC[C@H](NC(C)=O)C(=O)N[C@@H](CCCNC(=N)N)C(=O)N2CCC[C@H]2C(=O)N[C@@H](CCCNC(=N)N)C(=O)N[C@@H](CC(C)C)C(=O)N[C@@H](CO)C(=O)N1)C(=O)N1CCC[C@H]1C(=O)N[C@H](C)C(=O)O

Target: T1, human APJ receptor (hAPJ)
Assay: cell-based or functional assay

Q: B1 was tested. Which “hAPJ Ca^2+ Flux EC50” value did it give?
A: The value was 11.8 nM.

Q: Which “hAPJ Ca^2+ Flux EC50” value does the source give for Ac-CRPRLSCKGP[Nle]P[2Nal]-OH (disulfide 1-7) [Ac-C*-R-P-R-L-S-C*-K-G-P-Nle-P-Nal-OH] here?
A: The value was 1.6 nM.

Q: Which “hAPJ Ca^2+ Flux EC50” value does the source give for B2 here?
A: Its value is 21.4 nM.

Q: With B3 as the binder, how does the “hAPJ Ca^2+ Flux EC50” value read?
A: Its value is 2480 nM.

Q: B4 was tested. Which “hAPJ Ca^2+ Flux EC50” value did it give?
A: The value was 13.1 nM.

Q: Ac-CRPRLSCKGP[Nle]P-{NMe(Phenethyl)} (disulfide 1-7) [Ac-C*-R-P-R-L-S-C*-K-G-P-Nle-P-NMe(Phenethyl)] was tested. Which “hAPJ Ca^2+ Flux EC50” value did it give?
A: The value was 23.4 nM.
